From the supplement of paper PMC11136658

System: peptide library, one residue held at a place counted from the Y acceptor
Experiment: relative phosphorylation of the sub-library (ratio to the mean residue at this position); higher = residue favoured
Method in brief: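 Every value reflects phosphorylation relative to the mean randomized residue. The sum of the 18 randomized residues, or 16 in the Ser/Thr-free library, served to normalize intensities at each position, which were then multiplied by that number. Intensities came from phosphorimaging with ImageQuant of biotinylated Tyr-centred peptides captured on streptavidin membranes after 90 min with purified recombinant kinases and 50 μM ATP plus γ-32P-ATP.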

Sequence of ZAP70, construct: Full length, human (P43403 whole entry, looked up): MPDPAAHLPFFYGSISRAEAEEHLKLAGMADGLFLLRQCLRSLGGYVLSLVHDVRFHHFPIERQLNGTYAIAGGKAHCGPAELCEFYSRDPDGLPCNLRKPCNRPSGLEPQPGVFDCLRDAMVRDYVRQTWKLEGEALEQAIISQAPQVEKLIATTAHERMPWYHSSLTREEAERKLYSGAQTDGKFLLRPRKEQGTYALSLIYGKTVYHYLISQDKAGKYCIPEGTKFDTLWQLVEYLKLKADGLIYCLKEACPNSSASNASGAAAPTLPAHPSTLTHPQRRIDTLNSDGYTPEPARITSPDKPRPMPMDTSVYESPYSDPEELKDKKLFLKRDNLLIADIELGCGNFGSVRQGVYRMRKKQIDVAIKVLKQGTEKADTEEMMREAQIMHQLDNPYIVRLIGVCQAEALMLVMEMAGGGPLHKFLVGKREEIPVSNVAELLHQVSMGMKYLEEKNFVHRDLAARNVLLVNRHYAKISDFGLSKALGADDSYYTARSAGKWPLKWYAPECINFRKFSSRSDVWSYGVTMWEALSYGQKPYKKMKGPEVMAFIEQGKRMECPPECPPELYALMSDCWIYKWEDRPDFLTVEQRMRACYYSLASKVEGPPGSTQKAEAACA
Sequence of YES1, construct: Full length, human (P07947 whole entry, looked up): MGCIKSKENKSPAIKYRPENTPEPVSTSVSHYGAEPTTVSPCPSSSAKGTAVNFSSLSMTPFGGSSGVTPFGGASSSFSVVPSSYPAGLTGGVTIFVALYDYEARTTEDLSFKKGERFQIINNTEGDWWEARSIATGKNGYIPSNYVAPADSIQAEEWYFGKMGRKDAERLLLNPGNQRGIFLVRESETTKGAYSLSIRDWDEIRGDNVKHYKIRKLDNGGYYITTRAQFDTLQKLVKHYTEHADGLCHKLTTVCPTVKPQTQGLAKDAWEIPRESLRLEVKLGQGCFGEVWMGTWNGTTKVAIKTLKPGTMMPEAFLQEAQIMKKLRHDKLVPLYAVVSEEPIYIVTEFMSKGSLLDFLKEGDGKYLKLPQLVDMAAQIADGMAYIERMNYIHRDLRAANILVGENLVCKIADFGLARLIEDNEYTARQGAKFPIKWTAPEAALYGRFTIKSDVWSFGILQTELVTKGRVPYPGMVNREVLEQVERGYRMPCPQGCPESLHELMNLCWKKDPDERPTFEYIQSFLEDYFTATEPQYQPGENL

YES1, construct: Full length, human (from UniProt P07947)
relative phosphorylation
Conditions	at +1	at +2	at +3	at +4	at +5	at -1	at -2	at -3	at -4	at -5
A fixed	1.59	1.07	0.621	0.835	0.959	0.583	0.987	0.821	0.944	0.967
D fixed	0.822	0.636	0.492	0.759	0.76	0.641	1.35	1.7	1.42	1.35
E fixed	1.32	1.28	0.546	0.885	0.867	0.819	1.41	2.16	1.57	1.1
F fixed	0.723	1.08	2.83	1.24	1.13	0.652	0.57	0.794	0.731	0.861
G fixed	2.83	0.751	0.668	1.01	0.957	0.569	1.11	1.04	1.25	1.03
H fixed	0.8	0.71	1	1.12	1.07	0.733	1.27	1.03	1.02	1.02
I fixed	0.589	1.15	1.52	0.814	0.675	3.12	0.56	0.559	0.75	0.675
K fixed	0.418	0.721	0.552	1.06	1.19	0.468	0.873	0.697	0.989	1.23
L fixed	0.596	1.08	1.46	0.866	0.841	1.71	0.679	0.66	0.951	0.719
M fixed	1.11	1.19	1.01	1.29	0.932	0.974	0.727	0.74	0.952	0.834
N fixed	0.644	0.791	0.657	0.899	1.09	0.463	1.4	1.39	1.01	1.35
P fixed	0.462	0.724	0.518	0.785	1.37	1.3	1.31	1.02	1.12	1.22
Q fixed	0.897	1	0.599	1.17	1.01	0.521	1.18	1.15	1.09	1.1
R fixed	0.538	0.951	0.913	1.36	1.51	0.399	0.95	0.76	1.01	1.16
S fixed	1.13	1.3	0.672	0.938	1.07	0.518	1.31	1.08	0.846	0.949
T fixed	1.08	1.44	0.908	1.01	1	1.51	0.968	0.862	0.727	0.908
V fixed	0.892	1.3	1.37	0.842	0.749	2.26	0.663	0.558	0.857	0.783
W fixed	1.54	0.815	1.67	1.11	0.821	0.766	0.69	0.979	0.762	0.755
pThr fixed	1.21	1.33	0.497	0.667	0.674	1.07	1.1	1.13	1.07	1.17
pTyr fixed	2.21	1.24	0.636	0.841	0.739	0.806	1.21	1.18	1.27	1.2

ZAP70, construct: Full length, human (from UniProt P43403)
relative phosphorylation
Conditions	at +1	at +2	at +3	at +4	at +5	at -1	at -2	at -3	at -4	at -5
A fixed	1.06	0.821	0.963	0.884	1.33	0.998	0.898	0.967	1.56	1.12
D fixed	0.587	0.722	0.434	1.07	1.28	3.39	1.51	2.04	1.67	1.57
E fixed	1.29	1.08	0.275	1	1.28	1.95	2.19	2.09	2.51	1.4
F fixed	1.5	1.2	0.924	0.707	0.618	0.579	0.492	0.617	0.494	0.863
G fixed	0.481	0.544	0.842	1.14	1.63	0.746	1.56	1.1	1.43	1.58
H fixed	1.33	0.773	0.947	1.21	0.872	0.946	1	0.848	0.854	1.15
I fixed	0.769	0.724	1.11	0.548	0.423	0.956	0.413	0.588	0.561	0.684
K fixed	0.553	0.811	0.389	1.01	0.858	0.496	0.629	0.638	0.609	0.847
L fixed	0.761	0.949	0.956	0.764	0.55	0.796	0.465	0.559	0.571	0.553
M fixed	0.97	0.827	1.98	0.997	0.83	0.671	0.633	0.54	0.618	0.947
N fixed	0.635	1.01	0.499	0.731	0.967	1.2	1.52	1.53	0.822	1.26
P fixed	0.314	0.988	2.61	1.77	2.28	0.594	0.845	1.06	1.76	1.08
Q fixed	1.4	1.14	0.626	1.28	0.936	0.958	1.46	1.01	1.03	0.886
R fixed	0.448	0.77	0.432	1	0.522	0.4	0.576	0.713	0.684	0.814
S fixed	0.981	0.862	1.09	1.05	1.15	0.899	1.39	1.36	0.877	0.847
T fixed	1.31	1.08	0.782	0.955	1.25	1.04	1.26	0.966	0.661	0.925
V fixed	1.56	0.99	1.55	0.907	0.617	0.8	0.693	0.666	0.676	0.837
W fixed	2.05	2.7	1.58	0.97	0.62	0.573	0.464	0.713	0.625	0.625
pThr fixed	1.75	2.19	0.364	0.792	1.55	6.59	4.22	4.5	2.58	2.92
pTyr fixed	14.8	2.62	0.501	0.573	1.09	16.3	3.62	4.31	3.03	2.17
